One protein from ChEMBL document CHEMBL1139252, “Inhibition of purple acid phosphatase with alpha-alkoxynaphthylmethylphosphonic acids” (Bioorg Med Chem Lett, 2009) can be followed below.

What all share (settings): Phaseolus vulgaris
Substrate in data set [1]: O=P(O)(O)C(O)c1cccc2ccccc12
Put plainly: (§1) Activity of red kidney bean PAP at pH 6.2.

Substrate in data set [2]: O=P(O)(O)Cc1cccc2ccccc12
The data set is described as §1.

Substrate in data set [3]: CCCCCCCCCCOC(c1cccc2ccccc12)P(=O)(O)O
The data set is described as §1.

Substrate in data set [4]: CCCCCCCCOC(c1cccc2ccccc12)P(=O)(O)O
The data set is described as §1.

Substrate in data set [5]: CCCCCCOC(c1cccc2ccccc12)P(=O)(O)O
The data set is described as §1.

B1: Fe(3+)-Zn(2+) purple acid phosphatase (Phaseolus vulgaris), P80366 (protein)
chain: MGVVKGLLALALVLNVVVVSNGGKSSNFVRKTNKNRDMPLDSDVFRVPPGYNAPQQVHITQGDLVGRAMIISWVTMDEPGSSAVRYWSEKNGRKRIAKGKMSTYRFFNYSSGFIHHTTIRKLKYNTKYYYEVGLRNTTRRFSFITPPQTGLDVPYTFGLIGDLGQSFDSNTTLSHYELSPKKGQTVLFVGDLSYADRYPNHDNVRWDTWGRFTERSVAYQPWIWTAGNHEIEFAPEINETEPFKPFSYRYHVPYEASQSTSPFWYSIKRASAHIIVLSSYSAYGRGTPQYTWLKKELRKVKRSETPWLIVLMHSPLYNSYNHHFMEGEAMRTKFEAWFVKYKVDVVFAGHVHAYERSERVSNIAYKITNGLCTPVKDQSAPVYITIGDAGNYGVIDSNMIQPQPEYSAFREASFGHGMFDIKNRTHAHFSWNRNQDGVAVEADSVWFFNRHWYPVDDST
Regarding B1, the Michaelis constant (Km) turned out to be 5.31 mM in data set [1]; 5.78 mM in data set [2]; 3.1 mM in data set [3]; 3.41 mM in data set [4]; 4.28 mM in data set [5].
